Test results taken from the nanobody polyreactivity screen of Harvey et al. (2022).

Test: yeast display, Sf9 membrane polyspecificity reagent, FACS + sequencing; frameworks hold sequencing errors
How it was run: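 In a synthetic yeast display library (Saccharomyces cerevisiae BJ5465), nanobody expression was induced with galactose for 36–48 hours. FACS gates were set low and high (top ~1%) using anti-HA fluorescence for expression and streptavidin fluorescence for binding of the Sf9 membrane reagent. Each polyreactivity label is drawn from the gate of origin.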

Sequence	polyreactivity (PSR sort gate)
QVQLVESGGGLVQAGGSLRLSCAASGRIIFHNAMGWYRQAPGKERELVASITSGDGTYYSDSVKGRFTISRDNAKNTVYLQMNSMKPEDTAVYYCAAEPGSIAYYYNRVGLYYWGQGTQVTVSS	low polyreactivity
QVQLVESGGGLVQAGGSLRLSFAASGIIFSHNVMGWYRQAPGKERELVAAITYSGGSTYYADSVKGRFTISRDNAKNTVYLLMNSLKPEDTAVYYCNALGVSRRDYDYWGQGTQVTVSS	low polyreactivity
QVQLVESGGGLVQAGGSLRLSCAASGSIFKYNAMGWYRQAPGKERQLVAAISSSGGYTSYADSVKGRFTISRDNAKNTVYLQMNSLKPEDTAVYYCNAPYLIYKKGRYDYWGQGTQVTVSS	high polyreactivity
QVQLQESGGGLVQAGGSLRLSCAASGTISPLPAMGWYRQAPGKEREFVAGIDTGAITNYADSVKGRFTISRDNAKNTVYLQMNSLKPEDTAVYYCAVFPAAYDYYERYYTYWGQGTQVTVSS	high polyreactivity
QVQLVESGGGLVQAGGSLRLSCAASGFTFQRYTMGWYRQAPGKERELVAAISWSGGSTYYADSVKGRFTISRDNAKNSVYLQMNSLKPEDTAVYYCAAYRVIPYLSDYWGEGTQVTVSS	high polyreactivity
QVQLVESGGGLVQAGGSLRLSCAASGRTSTQNAMGWYRQAPGKERELVAAITTGGGSTYYADSVKGRFTISRDNAKNTVYLQMNSLKPEDTAVYYCAARTPQRSEWTKYGYWGQGTQVTVSS	low polyreactivity
QVQLVESGGGLVQAGGSLRLSCAASGRTFNAYAMGWYRLAPWKERELVAAISSGGSTYYADSVKGRFTISRDNAKNTVYLQMNSLKQEDTAVYYSNKVYGWRQFDYWGNGTQVTVSS	high polyreactivity
QVQLVESGGGLGQAGCSLRLSCAASGSTFAVYAMGWYRQAPGKERELVATITGSGGSTYYADSVKGRFTISRDNAKNPVYLQMNSLKPEDNAVYYCAAEVVAWSLYEDFKTYDYWGQGTQVTVSS	low polyreactivity
QVQLVESGGGLVQAGGSLRLSCADSGSTFDDNAMGWYRQAPGKDRELVASITYRGGSTYYADSVKGRFTISRDNAKNTVYLQMNSLKPEDTAVYYCAKGHYFKYDYWGQGTQVTVSS	low polyreactivity
QVQLVESGGGLVQAGGSLRLSCAASGYTYYRYAMGWYRQAPGKERELVAAISSSGGTYYADSVKGRFTISRDNAKNTVYLQMNSLKPEDTAVYYSAAEGYYLYNAGLWGYDYWGQGTQVTVSS	low polyreactivity
QVQLVESGGGLVQAGGSLRLSCAASGFTFCRNTMGWYRQAPGKEREFVAAIDWSGGSTTYADSVKGRFTISRDNAKNTVYLQMNSLKPEDTAVYYCAADERRRHYWWGQESDYWGQGTQVNVSS	low polyreactivity
QVQLVESGGGLVQAGGSLRLSCAASGFTFIRYAMGWYRQAPGKERELVATISRSGGRTYYADSVKGRFTISRDNAKNTVYLQMNSLKPEDTAVYYCNAEAIVLNGGGYWGQGTQVTVSS	high polyreactivity
QVQLVESGGGLVQAGGSLRLSCAASGRIFRSYAMGWYRQAPGKERELVAAITKSGGGTYYADTVKGRFTISRDNAKNTVYLQMNSMKPEDTAVYYCGARGHCGYYYWGQGTQVTVSS	high polyreactivity
QVQLVESGGGLVQAGGSLRLSCAASGSTFNFNAMGWYRQAPGKERELVAAISSSGGSTYYADSVKGRFTISRDNAKNTVYLQMNSLKPEDTAVYYCATVLRKSPLYYYWGQGTQVTVSS	high polyreactivity
QVQLVESGGGLVPAGGSLRLSCASSGRTFYPYAMGRYRQAPGKERELVAAITTSGGRTYYADSVKGRFTISRDNAKNTVYLQMNSLKPEDTGVYYCAKVYREGEGKFDYWGQGTQVTVSS	high polyreactivity
QVQLVESGGGLVQAGGSLRLSCAASGFTLTPYAMGWYRQAPGKERELVAAITYTGGSTYYADSVKGRFTISRDNAKNTVYLQMNSLKPEDTAVYYCAAEFLSVPYDYCYWGQGTQVTVSS	high polyreactivity
QVQLVESGGGLVQAGGSLRLSCAASGIIFHFNDMGWYRQAPGKERELVAAIDSTGSTNYADSVKGRFTISRDNAKNTVNLQMNSLKPEDTAVYYCAADWTLDPSYGYYADDYWGQGTQVTVSS	low polyreactivity
